This is an account of results in IntAct's records for PubMed 27820671.

The labels stand for the following.
B1: LIM/homeobox protein Lhx4 (Homo sapiens), Q969G2 (parent)
chain: MMQSATVPAEGAVKGLPEMLGVPMQQIPQCAGCNQHILDKFILKVLDRHWHSSCLKCADCQMQLADRCFSRAGSVYCKEDFFKRFGTKCTACQQGIPPTQVVRKAQDFVYHLHCFACIICNRQLATGDEFYLMEDGRLVCKEDYETAKQNDDSEAGAKRPRTTITAKQLETLKNAYKNSPKPARHVREQLSSETGLDMRVVQVWFQNRRAKEKRLKKDAGRHRWGQFYKSVKRSRGSSKQEKESSAEDCGVSDSELSFREDQILSELGHTNRIYGNVGDVTGGQLMNGSFSMDGTGQSYQDLRDGSPYGIPQSPSSISSLPSHAPLLNGLDYTVDSNLGIIAHAGQGVSQTLRAMAGGPTSDISTGSSVGYPDFPTSPGSWLDEMDHPPF
partner: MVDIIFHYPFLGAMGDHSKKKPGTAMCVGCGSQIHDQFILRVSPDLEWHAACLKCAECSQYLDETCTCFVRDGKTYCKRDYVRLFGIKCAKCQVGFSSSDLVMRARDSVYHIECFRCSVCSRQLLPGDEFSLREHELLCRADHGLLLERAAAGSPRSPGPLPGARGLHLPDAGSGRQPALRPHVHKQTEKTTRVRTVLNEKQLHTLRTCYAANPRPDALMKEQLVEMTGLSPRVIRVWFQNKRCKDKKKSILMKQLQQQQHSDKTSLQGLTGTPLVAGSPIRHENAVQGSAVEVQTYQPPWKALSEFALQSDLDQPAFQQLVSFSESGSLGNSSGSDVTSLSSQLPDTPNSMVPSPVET
B2: LIM/homeobox protein Lhx4 (Homo sapiens), Q969G2 (parent)
chain: B1 chain
partner: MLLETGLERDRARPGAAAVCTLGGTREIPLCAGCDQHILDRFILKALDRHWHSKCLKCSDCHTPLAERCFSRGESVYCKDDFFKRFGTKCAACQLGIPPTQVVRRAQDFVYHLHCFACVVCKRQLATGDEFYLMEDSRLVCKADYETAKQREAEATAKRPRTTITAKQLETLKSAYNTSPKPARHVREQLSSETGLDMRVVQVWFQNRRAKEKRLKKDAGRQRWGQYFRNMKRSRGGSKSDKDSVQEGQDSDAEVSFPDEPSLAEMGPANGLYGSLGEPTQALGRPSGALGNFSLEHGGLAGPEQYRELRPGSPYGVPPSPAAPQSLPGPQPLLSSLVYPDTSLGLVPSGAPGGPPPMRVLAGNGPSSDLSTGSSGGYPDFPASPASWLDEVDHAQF

The first experiment covers variants of B1. The settings on record: with isl2_human ISL2, Q96A47.
With MMQSATVPAEGAVKGLPEMLGVPMQQIPQCAGCNQHILDKFILKVLDRHWHSSCLKAADAQMQLADRCFSRAGSVYCKEDFFKRFGTKCTACQQGIPPTQVVRKAQDFVYHLHCFACIICNRQLATGDEFYLMEDGRLVCKEDYETAKQNDDSEAGAKRPRTTITAKQLETLKNAYKNSPKPARHVREQLSSETGLDMRVVQVWFQNRRAKEKRLKKDAGRHRWGQFYKSVKRSRGSSKQEKESSAEDCGVSDSELSFREDQILSELGHTNRIYGNVGDVTGGQLMNGSFSMDGTGQSYQDLRDGSPYGIPQSPSSISSLPSHAPLLNGLDYTVDSNLGIIAHAGQGVSQTLRAMAGGPTSDISTGSSVGYPDFPTSPGSWLDEMDHPPF [C57A;C60A], the “effect of a mutation on the interaction” value was “decreasing interaction strength”.
Same read-out and setting: the entry for MMQSATVPAEGAVKGLPEMLGVPMQQIPQCAGCNQHILDKFILKVLDRHWHSSCLKCADCQMQLVDRCFSRAGSVYCKEDFFKRFGTKCTACQQGIPPTQVVRKAQDFVYHLHCFACIICNRQLATGDEFYLMEDGRLVCKEDYETAKQNDDSEAGAKRPRTTITAKQLETLKNAYKNSPKPARHVREQLSSETGLDMRVVQVWFQNRRAKEKRLKKDAGRHRWGQFYKSVKRSRGSSKQEKESSAEDCGVSDSELSFREDQILSELGHTNRIYGNVGDVTGGQLMNGSFSMDGTGQSYQDLRDGSPYGIPQSPSSISSLPSHAPLLNGLDYTVDSNLGIIAHAGQGVSQTLRAMAGGPTSDISTGSSVGYPDFPTSPGSWLDEMDHPPF [A65V] is “with no effect”.

In the next experiment the parent is B2. The note with it: with lhx3_human LHX3, Q9UBR4.
Turning to MMQSATVPAEGAVKGLPEMLGVPMQQIPQCAGCNQHILDKFILKVLDRHWHSSCLKCADCQMQLVDRCFSRAGSVYCKEDFFKRFGTKCTACQQGIPPTQVVRKAQDFVYHLHCFACIICNRQLATGDEFYLMEDGRLVCKEDYETAKQNDDSEAGAKRPRTTITAKQLETLKNAYKNSPKPARHVREQLSSETGLDMRVVQVWFQNRRAKEKRLKKDAGRHRWGQFYKSVKRSRGSSKQEKESSAEDCGVSDSELSFREDQILSELGHTNRIYGNVGDVTGGQLMNGSFSMDGTGQSYQDLRDGSPYGIPQSPSSISSLPSHAPLLNGLDYTVDSNLGIIAHAGQGVSQTLRAMAGGPTSDISTGSSVGYPDFPTSPGSWLDEMDHPPF [A65V], the “effect of a mutation on the interaction” value is “with no effect”.
On the same count and under the same terms, the entry for MMQSATVPAEGAVKGLPEMLGVPMQQIPQCAGCNQHILDKFILKVLDRHWHSSCLKAADAQMQLADRCFSRAGSVYCKEDFFKRFGTKCTACQQGIPPTQVVRKAQDFVYHLHCFACIICNRQLATGDEFYLMEDGRLVCKEDYETAKQNDDSEAGAKRPRTTITAKQLETLKNAYKNSPKPARHVREQLSSETGLDMRVVQVWFQNRRAKEKRLKKDAGRHRWGQFYKSVKRSRGSSKQEKESSAEDCGVSDSELSFREDQILSELGHTNRIYGNVGDVTGGQLMNGSFSMDGTGQSYQDLRDGSPYGIPQSPSSISSLPSHAPLLNGLDYTVDSNLGIIAHAGQGVSQTLRAMAGGPTSDISTGSSVGYPDFPTSPGSWLDEMDHPPF [C57A;C60A] is “decreasing interaction strength”.
